According to publication PMC4533228:

Target: homotypic K48-polyUb cyB1-NT^K64 (GST-bound single-lysine N-terminal fragment of cyclin B1 ubiquitinated with Ub^K48) (UniProt P0CG48)
Experiment: pull-down; resin-bound polyUb conjugates (≈20 nM) incubated with purified 26S proteasomes (10 nM) at 4°C, washed; bound proteasomes measured by cleavage of suc-LLVY-AMC at 37°C (one panel also with 300 nM hHR23A)

Chain of homotypic K48-polyUb cyB1-NT^K64 (GST-bound single-lysine N-terminal fragment of cyclin B1 ubiquitinated with Ub^K48) (P0CG48 whole entry, looked up, the tested form may be a part): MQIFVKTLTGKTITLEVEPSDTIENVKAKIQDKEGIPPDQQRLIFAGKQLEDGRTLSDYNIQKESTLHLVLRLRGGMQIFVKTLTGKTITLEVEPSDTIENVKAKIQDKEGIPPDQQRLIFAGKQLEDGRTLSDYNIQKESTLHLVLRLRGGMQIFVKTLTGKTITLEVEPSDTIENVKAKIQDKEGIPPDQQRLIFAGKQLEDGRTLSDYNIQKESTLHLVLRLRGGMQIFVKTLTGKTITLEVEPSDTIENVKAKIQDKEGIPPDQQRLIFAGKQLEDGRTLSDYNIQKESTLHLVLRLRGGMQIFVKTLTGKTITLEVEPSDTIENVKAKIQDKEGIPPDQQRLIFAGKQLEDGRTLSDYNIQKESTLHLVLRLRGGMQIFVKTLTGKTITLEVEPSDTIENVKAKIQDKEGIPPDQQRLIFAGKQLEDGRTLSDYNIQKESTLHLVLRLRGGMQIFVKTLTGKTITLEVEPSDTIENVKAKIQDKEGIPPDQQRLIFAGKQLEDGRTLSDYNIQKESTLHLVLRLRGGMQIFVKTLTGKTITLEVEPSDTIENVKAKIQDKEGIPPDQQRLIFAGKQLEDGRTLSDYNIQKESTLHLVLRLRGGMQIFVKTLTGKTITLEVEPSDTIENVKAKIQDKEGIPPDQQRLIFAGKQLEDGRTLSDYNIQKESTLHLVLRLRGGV

- fold binding relative to K11 chains (K11-polyUb cyB1-NT^K64): 4.5 fold
Substance: 26S proteasome purified from rabbit muscle (complex)
